Positions count from the first letter of the chain named. Names and notes keep the numbering of the source.
T1: Human LRRC15 Protein, His Tag (Acro Biosystems) (human, UniProt Q8TF66 22-538, limits assumed)
T1 construct: not shown: His tag
T1 sequence (looked up): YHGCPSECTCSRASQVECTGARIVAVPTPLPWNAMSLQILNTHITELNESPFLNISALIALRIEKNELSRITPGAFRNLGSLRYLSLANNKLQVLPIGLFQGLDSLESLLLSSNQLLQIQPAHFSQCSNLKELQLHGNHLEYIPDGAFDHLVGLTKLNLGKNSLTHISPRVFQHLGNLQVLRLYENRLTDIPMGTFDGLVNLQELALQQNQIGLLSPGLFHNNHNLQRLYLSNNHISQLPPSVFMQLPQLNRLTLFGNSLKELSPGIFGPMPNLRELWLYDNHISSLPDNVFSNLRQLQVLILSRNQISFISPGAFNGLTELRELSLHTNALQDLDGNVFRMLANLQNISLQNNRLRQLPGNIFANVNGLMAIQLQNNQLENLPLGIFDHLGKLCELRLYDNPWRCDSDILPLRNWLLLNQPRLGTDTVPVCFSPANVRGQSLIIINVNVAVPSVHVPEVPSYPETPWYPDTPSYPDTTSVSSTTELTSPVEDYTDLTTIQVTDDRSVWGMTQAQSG

T2: Human LRRC15 Protein, His Tag (Acro Biosystems) (human, UniProt Q8TF66 22-538, limits assumed)
T2 construct: Bought protein with His tag
T2 sequence (looked up): T1 sequence (looked up)

B1: MYT7926 (antibody, V domains shown)
VH: QQQLVESGGGLVKPGASLTLTCKASGFSFSGSYWICWVRQAPGKGLEWIGCINGGSLDITYYASWAKGRFTISKASSTTVTLQKTSLTAADTATYFCASDTSYTAYGNFYFNLWGPGTLVTVSS
VL: AQVLTQTASPVSAAVGGTVTINCHSSQSVLNNNWLAWYQQKPGQPPKLLIYDASSLASGVPSRFKGSGSGTQFTLTISDLESDDAATYYCQGEFSCGSADCNAFGGGTEVVVKG
notes: tested as culture supernatant; also called 24D9 VL Q24H
B2: MYT7928 (antibody, V domains shown)
VH: B1 VH
VL: B1 VL with H24Q, S26H
notes: tested as culture supernatant; also called 24D9 VL S26H
B3: MYT7933 (antibody, V domains shown)
VH: B1 VH
VL: B1 VL with H24Q, N31H
notes: also called 24D9 VL N31H
B4: MYT7932 (antibody, V domains shown)
VH: B1 VH
VL: B1 VL with H24Q, L30H
notes: tested as culture supernatant; also called 24D9 VL L30H
B5: MYT7929 (antibody, V domains shown)
VH: B1 VH
VL: B1 VL with H24Q, Q27H
notes: tested as culture supernatant; also called 24D9 VL Q27H
B6: MYT7930 (antibody, V domains shown)
VH: B1 VH
VL: B1 VL with H24Q, S28H
notes: tested as culture supernatant; also called 24D9 VL S28H
B7: MYT7927 (antibody, V domains shown)
VH: B1 VH
VL: B1 VL with H24Q, S25H
notes: tested as culture supernatant; also called 24D9 VL S25H
B8: MYT7931 (antibody, V domains shown)
VH: B1 VH
VL: B1 VL with H24Q, V29H
notes: tested as culture supernatant; also called 24D9 VL V29H
B9: MYT7934 (antibody, V domains shown)
VH: B1 VH
VL: B1 VL with H24Q, N32H
notes: tested as culture supernatant; also called 24D9 VL N32H
B10: MYT7888 (antibody, V domains shown)
VH: B1 VH with Y33H
VL: B1 VL with H24Q
notes: rabbit 24D9 VH Y33H; chimeric, human constant regions
B11: MYT7904 (antibody, V domains shown)
VH: B1 VH with A63H
VL: B1 VL with H24Q
notes: rabbit 24D9 VH A63H; chimeric, human constant regions
B12: MYT7903 (antibody, V domains shown)
VH: B1 VH with Y62H
VL: B1 VL with H24Q
notes: rabbit 24D9 VH Y62H; chimeric, human constant regions
B13: MYT7909 (antibody, V domains shown)
VH: B1 VH with G68H
VL: B1 VL with H24Q
notes: rabbit 24D9 VH G68H; chimeric, human constant regions
B14: MYT7891 (antibody, V domains shown)
VH: B1 VH with C36H, C51S
VL: B1 VL with H24Q
notes: rabbit 24D9 VH C36H; chimeric, human constant regions
B15: MYT7900 (antibody, V domains shown)
VH: B1 VH with I59H
VL: B1 VL with H24Q
notes: rabbit 24D9 VH I59H; chimeric, human constant regions
B16: MYT7906 (antibody, V domains shown)
VH: B1 VH with W65H
VL: B1 VL with H24Q
notes: rabbit 24D9 VH W65H; chimeric, human constant regions
B17: MYT7910 (antibody, V domains shown)
VH: B1 VH with A98H
VL: B1 VL with H24Q
notes: rabbit 24D9 VH A98H; chimeric, human constant regions
B18: MYT7901 (antibody, V domains shown)
VH: B1 VH with T60H
VL: B1 VL with H24Q
notes: rabbit 24D9 VH T60H; chimeric, human constant regions
B19: MYT7892 (antibody, V domains shown)
VH: B1 VH with C36S, C51H
VL: B1 VL with H24Q
notes: rabbit 24D9 VH C51H; chimeric, human constant regions
B20: MYT7894 (antibody, V domains shown)
VH: B1 VH with N53H
VL: B1 VL with H24Q
notes: rabbit 24D9 VH N53H; chimeric, human constant regions
B21: MYT7889 (antibody, V domains shown)
VH: B1 VH with W34H
VL: B1 VL with H24Q
notes: rabbit 24D9 VH W34H; chimeric, human constant regions
B22: MYT7897 (antibody, V domains shown)
VH: B1 VH with S56H
VL: B1 VL with H24Q
notes: rabbit 24D9 VH S56H; chimeric, human constant regions
B23: MYT7895 (antibody, V domains shown)
VH: B1 VH with G54H
VL: B1 VL with H24Q
notes: rabbit 24D9 VH G54H; chimeric, human constant regions
B24: MYT7898 (antibody, V domains shown)
VH: B1 VH with L57H
VL: B1 VL with H24Q
notes: rabbit 24D9 VH L57H; chimeric, human constant regions
B25: MYT7908 (antibody, V domains shown)
VH: B1 VH with K67H
VL: B1 VL with H24Q
notes: rabbit 24D9 VH K67H; chimeric, human constant regions
B26: MYT7905 (antibody, V domains shown)
VH: B1 VH with S64H
VL: B1 VL with H24Q
notes: rabbit 24D9 VH S64H; chimeric, human constant regions
B27: MYT7890 (antibody, V domains shown)
VH: B1 VH with I35H
VL: B1 VL with H24Q
notes: rabbit 24D9 VH I35H; chimeric, human constant regions
B28: MYT7893 (antibody, V domains shown)
VH: B1 VH with I52H
VL: B1 VL with H24Q
notes: rabbit 24D9 VH I52H; chimeric, human constant regions
B29: MYT7911 (antibody, V domains shown)
VH: B1 VH with S99H
VL: B1 VL with H24Q
notes: rabbit 24D9 VH S99H; chimeric, human constant regions
B30: MYT7899 (antibody, V domains shown)
VH: B1 VH with D58H
VL: B1 VL with H24Q
notes: rabbit 24D9 VH D58H; chimeric, human constant regions
B31: MYT7896 (antibody, V domains shown)
VH: B1 VH with G55H
VL: B1 VL with H24Q
notes: rabbit 24D9 VH G55H; chimeric, human constant regions
B32: MYT7907 (antibody, V domains shown)
VH: B1 VH with A66H
VL: B1 VL with H24Q
notes: rabbit 24D9 VH A66H; chimeric, human constant regions
B33: MYT7902 (antibody, V domains shown)
VH: B1 VH with Y61H
VL: B1 VL with H24Q
notes: rabbit 24D9 VH Y61H; chimeric, human constant regions

Molecular target: T1, Human LRRC15 Protein, His Tag (Acro …)
Assay: BLI; dissociation pH 7.4 black, pH 5.4 grey [D00016 FIG. 3B]

binding result | Binder
binds | B1
binds | B2
binds | B3
no binding (tested: 50 nM LRRC15) | B4
binds | B5
binds | B6
binds | B7
no binding (tested: 50 nM LRRC15) | B8
binds | B9

Molecular target: T2, Human LRRC15 Protein, His Tag (Acro …)
Assay: BLI; dissociation pH 7.4 black, pH 5.4 grey [1/2); D00013 FIG. 2B (1/2]

binding result | Binder
binds | B10
binds | B11
binds | B12
binds | B13
binds | B14
binds | B15
binds | B16
binds | B17
binds | B18
binds | B19
binds | B20
binds | B21
binds | B22
binds | B23
binds | B24
binds | B25
binds | B26
binds | B27
binds | B28
no binding (tested: 50 nM LRRC15) | B29
binds | B30
binds | B31
binds | B32
binds | B33

Reference: US20250352661A1 (MYTHIC THERAPEUTICS, published 2025)
